Assay [1] deals with EV71 mature virions (human enterovirus 71 (EV71)).
Assay [2] has the same target. The source holds these as a separate data set.
The target in assay [3] is human SCARB2 on 293A-hSCARB2 cells pretreated with PNGase F (human) (UniProt Q14108).
Assay [4] has the same target. Briefly: flow cytometry on cells; binding of EV71 to 293A-hSCARB2 cells pretreated with or without PNGase F; details in the Extended Experimental Procedures. In general terms: A flow cytometer gives signals particle by particle.
In the next assay the target is T1, EV71 mature virions (human enterovirus 71 (EV71)).
T1 chain 1: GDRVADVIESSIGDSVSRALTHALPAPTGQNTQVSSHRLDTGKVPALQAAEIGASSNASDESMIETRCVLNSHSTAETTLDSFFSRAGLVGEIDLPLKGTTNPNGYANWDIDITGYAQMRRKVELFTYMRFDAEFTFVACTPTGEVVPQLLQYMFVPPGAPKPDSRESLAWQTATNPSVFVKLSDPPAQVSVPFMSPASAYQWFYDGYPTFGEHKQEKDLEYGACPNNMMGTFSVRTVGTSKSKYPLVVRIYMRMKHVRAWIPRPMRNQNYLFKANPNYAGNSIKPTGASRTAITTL
T1 chain 2: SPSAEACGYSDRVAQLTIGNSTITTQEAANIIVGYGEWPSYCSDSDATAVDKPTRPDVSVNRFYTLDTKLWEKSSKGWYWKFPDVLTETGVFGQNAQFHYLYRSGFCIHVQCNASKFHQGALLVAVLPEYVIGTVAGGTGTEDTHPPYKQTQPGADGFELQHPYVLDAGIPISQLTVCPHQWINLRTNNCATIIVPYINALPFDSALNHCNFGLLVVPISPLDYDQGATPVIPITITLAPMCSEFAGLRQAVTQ
T1 chain 3: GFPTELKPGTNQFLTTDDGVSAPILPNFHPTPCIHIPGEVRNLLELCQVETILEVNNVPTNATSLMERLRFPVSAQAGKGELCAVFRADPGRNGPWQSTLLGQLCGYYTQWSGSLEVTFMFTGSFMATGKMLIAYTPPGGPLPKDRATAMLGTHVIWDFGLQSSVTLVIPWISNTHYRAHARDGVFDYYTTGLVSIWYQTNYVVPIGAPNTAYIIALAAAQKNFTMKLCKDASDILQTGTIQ
T1 chain 4: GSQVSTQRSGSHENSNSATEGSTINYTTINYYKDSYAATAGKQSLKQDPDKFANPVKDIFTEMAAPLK
Description: ITC. For orientation: ITC needs no label: the signal is the heat of the interaction.

Sequence of human SCARB2 on 293A-hSCARB2 cells pretreated with PNGase F (human) (Q14108 whole entry): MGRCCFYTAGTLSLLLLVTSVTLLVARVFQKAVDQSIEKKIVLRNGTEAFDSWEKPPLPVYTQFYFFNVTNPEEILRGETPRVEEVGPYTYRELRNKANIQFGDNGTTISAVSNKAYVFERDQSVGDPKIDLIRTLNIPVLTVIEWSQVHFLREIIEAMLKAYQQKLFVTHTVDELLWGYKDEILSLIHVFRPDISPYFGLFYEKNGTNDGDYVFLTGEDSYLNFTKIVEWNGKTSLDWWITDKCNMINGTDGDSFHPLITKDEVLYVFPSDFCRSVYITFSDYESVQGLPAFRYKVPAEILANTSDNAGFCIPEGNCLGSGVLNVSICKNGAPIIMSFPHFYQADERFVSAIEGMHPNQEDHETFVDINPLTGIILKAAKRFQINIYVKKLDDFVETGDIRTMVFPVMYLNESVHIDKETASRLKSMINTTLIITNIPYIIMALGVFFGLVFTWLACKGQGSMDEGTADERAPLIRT

On to “recombinant SCARB2-His-tag protein (ectodomain of scavenger receptor class B 2)”, for which, in assay [1], the [3H]-labeled sphingosine removed from EV71 mature virions by excess recombinant SCARB2 (60:1) at pH 5.0, 37°C, 1-4 h turned out to be 90%. Also, the conversion of mature virions (~160 S) into ~125 S particles (A particles) by sedimentation velocity AUC after 1 h at 37°C with SCARB2 at pH 7.4 in assay [2] was determined as 5%.
Consider EV71 mature virions (complex), for which the decrease in infection efficiency of EV71-GFP on 293A-hSCARB2 cells pretreated with PNGase F, against untreated cells (GFP-positive cells 16 h post infection) in assay [3] turned out to be 40%. Besides, in assay [4], the reduction of binding against untreated cells came to 30%.

B1: synthesized peptide of SCARB2 (aa 146-166) (peptide)
peptide: WSQVHFLREIIEAMLKAYQQK
By Kd is commonly meant the constant that tells how readily two partners part at equilibrium. Low readings indicate tighter binding, high ones weaker binding. B1: the equilibrium dissociation constant (Kd) with EV71 mature virions was 4.2 µM. In other words, the single-digit micromolar range.
